# ChEMBL document CHEMBL1139252, “Inhibition of purple acid phosphatase with alpha-alkoxynaphthylmethylphosphonic acids” (Bioorg Med Chem Lett, 2009)
# B1: Fe(3+)-Zn(2+) purple acid phosphatase (Phaseolus vulgaris), P80366 (protein)
# chain: MGVVKGLLALALVLNVVVVSNGGKSSNFVRKTNKNRDMPLDSDVFRVPPGYNAPQQVHITQGDLVGRAMIISWVTMDEPGSSAVRYWSEKNGRKRIAKGKMSTYRFFNYSSGFIHHTTIRKLKYNTKYYYEVGLRNTTRRFSFITPPQTGLDVPYTFGLIGDLGQSFDSNTTLSHYELSPKKGQTVLFVGDLSYADRYPNHDNVRWDTWGRFTERSVAYQPWIWTAGNHEIEFAPEINETEPFKPFSYRYHVPYEASQSTSPFWYSIKRASAHIIVLSSYSAYGRGTPQYTWLKKELRKVKRSETPWLIVLMHSPLYNSYNHHFMEGEAMRTKFEAWFVKYKVDVVFAGHVHAYERSERVSNIAYKITNGLCTPVKDQSAPVYITIGDAGNYGVIDSNMIQPQPEYSAFREASFGHGMFDIKNRTHAHFSWNRNQDGVAVEADSVWFFNRHWYPVDDST
# Legend:
# Settings in all cases: Phaseolus vulgaris
# [1] = substrate: CCCCCCOC(c1cccc2ccccc12)P(=O)(O)O; assay: (§1) Activity of red kidney bean PAP at pH 6.2
# [2] = substrate: CCCCCCCCOC(c1cccc2ccccc12)P(=O)(O)O; assay: as §1
# [3] = substrate: O=P(O)(O)C(O)c1cccc2ccccc12; assay: as §1
# [4] = substrate: CCCCCCCCCCOC(c1cccc2ccccc12)P(=O)(O)O; assay: as §1
# [5] = substrate: O=P(O)(O)Cc1cccc2ccccc12; assay: as §1
protein,measurement,setting,value
B1,Km,[1],4.28 mM
same,Km,[2],3.41 mM
same,Km,[3],5.31 mM
same,Km,[4],3.1 mM
same,Km,[5],5.78 mM
